Here are results for 8 molecules from article PMC7367873, “Dissecting the sequence determinants for dephosphorylation by the catalytic subunits of phosphatases PP1 and PP2A” (Nature Communications, 2020).

The subject of test [1] is GFP-14-3-3β and its binding proteins. The test can be described thus: GFP-14-3-3β co-IP with LC-MS/MS label-free quantification, untreated versus PP1c-treated. On the set-up: species or system human.
The subject of test [2] is GFP-14-3-3β. Kind of test: GFP-14-3-3β co-IP with LC-MS/MS, untreated GFP-14-3-3β versus GFP control (14-3-3 interactome). The format is binding, human.
Setting [3] is: PP1 vs untreated, LFQ intensities, replicates 1-3.
Setting [4] is: untreated vs GFP, LFQ intensities, replicates 1-3.
The mark [5] stands for this setting: log2 difference, pairwise comparison PP1 vs untreated, label-free quantification, 3 replicates each.
Setting [6] is: log2 difference, pairwise comparison untreated vs GFP, label-free quantification, 3 replicates each.

B1: NOLC1 (protein, UniProt Q14978 1-699, looked up)
Nucleolar and coiled-body …: MADAGIRRVVPSDLYPLVLGFLRDNQLSEVANKFAKATGATQQDANASSLLDIYSFWLKSAKVPERKLQANGPVAKKAKKKASSSDSEDSSEEEEEVQGPPAKKAAVPAKRVGLPPGKAAAKASESSSSEESSDDDDEEDQKKQPVQKGVKPQAKAAKAPPKKAKSSDSDSDSSSEDEPPKNQKPKITPVTVKAQTKAPPKPARAAPKIANGKAASSSSSSSSSSSSDDSEEEKAAATPKKTVPKKQVVAKAPVKAATTPTRKSSSSEDSSSDEEEEQKKPMKNKPGPYSSVPPPSAPPPKKSLGTQPPKKAVEKQQPVESSEDSSDESDSSSEEEKKPPTKAVVSKATTKPPPAKKAAESSSDSSDSDSSEDDEAPSKPAGTTKNSSNKPAVTTKSPAVKPAAAPKQPVGGGQKLLTRKADSSSSEEESSSSEEEKTKKMVATTKPKATAKAALSLPAKQAPQGSRDSSSDSDSSSSEEEEEKTSKSAVKKKPQKVAGGAAPSKPASAKKGKAESSNSSSSDDSSEEEEEKLKGKGSPRPQAPKANGTSALTAQNGKAAKNSEEEEEEKKKAAVVVSKSGSLKKRKQNEAAKEAETPQAKKIKLQTPNTFPKRKKGEKRASSPFRRVREEEIEVDSRVADNSFDAKRGAAGDWGERANQVLKFTKGKSFRHEKTKKKRGSYRGGSISVQVNSIKFDSE
As to B1, the “Difference (log2), PP1 vs untreated” value in test [1] (setting [3]) was -0.8521 log2. In test [2] (setting [4]), the “Difference (log2), untreated vs GFP” value is listed as 2.872 log2.

B2: CDR2L (protein, UniProt Q86X02 1-465, looked up)
Cerebellar …: MRRAAGMEDFSAEEEESWYDQQDLEQDLHLAAELGKTLLERNKELEGSLQQMYSTNEEQVQEIEYLTKQLDTLRHVNEQHAKVYEQLDLTARDLELTNHRLVLESKAAQQKIHGLTETIERLQAQVEELQAQVEQLRGLEQLRVLREKRERRRTIHTFPCLKELCTSPRCKDAFRLHSSSLELGPRPLEQENERLQTLVGALRSQVSQERQRKERAEREYTAVLQEYSELERQLCEMEACRLRVQELEAELLELQQMKQAKTYLLGPDDHLAEALLAPLTQAPEADDPQPGRGDDLGAQDGVSSPAASPGHVVRKSCSDTALNAIVAKDPASRHAGNLTLHANSVRKRGMSILREVDEQYHALLEKYEELLSKCRQHGAGVRHAGVQTSRPISRDSSWRDLRGGEEGQGEVKAGEKSLSQHVEAVDKRLEQSQPEYKALFKEIFSRIQKTKADINATKVKTHSSK
B2: the “Difference (log2), PP1 vs untreated” value in test [1] (setting [3]) is -0.8285 log2. The “Difference (log2), untreated vs GFP” value in test [2] (setting [4]) is reported as 4.028 log2.

B3: KRT18 (protein, UniProt P05783 2-430, looked up)
Keratin, type I cytoskeletal …: SFTTRSTFSTNYRSLGSVQAPSYGARPVSSAASVYAGAGGSGSRISVSRSTSFRGGMGSGGLATGIAGGLAGMGGIQNEKETMQSLNDRLASYLDRVRSLETENRRLESKIREHLEKKGPQVRDWSHYFKIIEDLRAQIFANTVDNARIVLQIDNARLAADDFRVKYETELAMRQSVENDIHGLRKVIDDTNITRLQLETEIEALKEELLFMKKNHEEEVKGLQAQIASSGLTVEVDAPKSQDLAKIMADIRAQYDELARKNREELDKYWSQQIEESTTVVTTQSAEVGAAETTLTELRRTVQSLEIDLDSMRNLKASLENSLREVEARYALQMEQLNGILLHLESELAQTRAEGQRQAQEYEALLNIKVKLEAEIATYRRLLEDGEDFNLGDALDSSNSMQTIQKTTTRRIVDGKVVSETNDTKVLRH
With B3, the “Difference (log2), PP1 vs untreated” value in test [1] (setting [5]) is 1.649. For the same molecule, the “Difference (log2), untreated vs GFP” value in test [2] (setting [6]) is on record as -2.259.

B4: SLC16A3 (protein, UniProt O15427 2-465, looked up)
Monocarboxylate transporter 4: GGAVVDEGPTGVKAPDGGWGWAVLFGCFVITGFSYAFPKAVSVFFKELIQEFGIGYSDTAWISSILLAMLYGTGPLCSVCVNRFGCRPVMLVGGLFASLGMVAASFCRSIIQVYLTTGVITGLGLALNFQPSLIMLNRYFSKRRPMANGLAAAGSPVFLCALSPLGQLLQDRYGWRGGFLILGGLLLNCCVCAALMRPLVVTAQPGSGPPRPSRRLLDLSVFRDRGFVLYAVAASVMVLGLFVPPVFVVSYAKDLGVPDTKAAFLLTILGFIDIFARPAAGFVAGLGKVRPYSVYLFSFSMFFNGLADLAGSTAGDYGGLVVFCIFFGISYGMVGALQFEVLMAIVGTHKFSSAIGLVLLMEAVAVLVGPPSGGKLLDATHVYMYVFILAGAEVLTSSLILLLGNFFCIRKKPKEPQPEVAAAEEEKLHKPPADSGVDLREVEHFLKAEPEKNGEVVHTPETSV
As to B4, the “Difference (log2), PP1 vs untreated” value in test [1] (setting [5]) came to 1.651. For the same molecule, the “Difference (log2), untreated vs GFP” value in test [2] (setting [6]) came out at 0.1883.

B5: MATR3 (protein, UniProt P43243 2-847, looked up)
Matrin-3: SKSFQQSSLSRDSQGHGRDLSAAGIGLLAAATQSLSMPASLGRMNQGTARLASLMNLGMSSSLNQQGAHSALSSASTSSHNLQSIFNIGSRGPLPLSSQHRGDADQASNILASFGLSARDLDELSRYPEDKITPENLPQILLQLKRRRTEEGPTLSYGRDGRSATREPPYRVPRDDWEEKRHFRRDSFDDRGPSLNPVLDYDHGSRSQESGYYDRMDYEDDRLRDGERCRDDSFFGETSHNYHKFDSEYERMGRGPGPLQERSLFEKKRGAPPSSNIEDFHGLLPKGYPHLCSICDLPVHSNKEWSQHINGASHSRRCQLLLEIYPEWNPDNDTGHTMGDPFMLQQSTNPAPGILGPPPPSFHLGGPAVGPRGNLGAGNGNLQGPRHMQKGRVETSRVVHIMDFQRGKNLRYQLLQLVEPFGVISNHLILNKINEAFIEMATTEDAQAAVDYYTTTPALVFGKPVRVHLSQKYKRIKKPEGKPDQKFDQKQELGRVIHLSNLPHSGYSDSAVLKLAEPYGKIKNYILMRMKSQAFIEMETREDAMAMVDHCLKKALWFQGRCVKVDLSEKYKKLVLRIPNRGIDLLKKDKSRKRSYSPDGKESPSDKKSKTDGSQKTESSTEGKEQEEKSGEDGEKDTKDDQTEQEPNMLLESEDELLVDEEEAAALLESGSSVGDETDLANLGDVASDGKKEPSDKAVKKDGSASAAAKKKLKKVDKIEELDQENEAALENGIKNEENTEPGAESSENADDPNKDTSENADGQSDENKDDYTIPDEYRIGPYQPNVPVGIDYVIPKTGFYCKLCSLFYTNEEVAKNTHCSSLPHYQKLKKFLNKLAEERRQKKET
Turning to B5, the “Difference (log2), PP1 vs untreated” value in test [1] (GFP-14-3-3β co-IP LC-MS/MS, PP1 vs untreated, student's t-test, label-free quantification, 3 replicates each) is reported as -0.7331 log2. Besides, the “Difference (log2), untreated vs GFP” value in test [2] (GFP-14-3-3β co-IP LC-MS/MS, untreated vs GFP, student's t-test, label-free quantification, 3 replicates each) was 1.234 log2.

B6: UTP18 (protein, UniProt Q9Y5J1 1-556, looked up)
U3 small nucleolar …: MPPERRRRMKLDRRTGAKPKRKPGMRPDWKAGAGPGGPPQKPAPSSQRKPPARPSAAAAAIAVAAAEEERRLRQRNRLRLEEDKPAVERCLEELVFGDVENDEDALLRRLRGPRVQEHEDSGDSEVENEAKGNFPPQKKPVWVDEEDEDEEMVDMMNNRFRKDMMKNASESKLSKDNLKKRLKEEFQHAMGGVPAWAETTKRKTSSDDESEEDEDDLLQRTGNFISTSTSLPRGILKMKNCQHANAERPTVARISSVQFHPGAQIVMVAGLDNAVSLFQVDGKTNPKIQSIYLERFPIFKACFSANGEEVLATSTHSKVLYVYDMLAGKLIPVHQVRGLKEKIVRSFEVSPDGSFLLINGIAGYLHLLAMKTKELIGSMKINGRVAASTFSSDSKKVYASSGDGEVYVWDVNSRKCLNRFVDEGSLYGLSIATSRNGQYVACGSNCGVVNIYNQDSCLQETNPKPIKAIMNLVTGVTSLTFNPTTEILAIASEKMKEAVRLVHLPSCTVFSNFPVIKNKNISHVHTMDFSPRSGYFALGNEKGKALMYRLHHYSDF
As for B6, the “Difference (log2), PP1 vs untreated” value in test [1] (setting [3]) is -0.8415 log2. The “Difference (log2), untreated vs GFP” value in test [2] (setting [4]) amounted to 2.416 log2.

B7: HSPD1 (protein, UniProt P10809 27-573, looked up)
60 kDa heat shock protein, …: AKDVKFGADARALMLQGVDLLADAVAVTMGPKGRTVIIEQSWGSPKVTKDGVTVAKSIDLKDKYKNIGAKLVQDVANNTNEEAGDGTTTATVLARSIAKEGFEKISKGANPVEIRRGVMLAVDAVIAELKKQSKPVTTPEEIAQVATISANGDKEIGNIISDAMKKVGRKGVITVKDGKTLNDELEIIEGMKFDRGYISPYFINTSKGQKCEFQDAYVLLSEKKISSIQSIVPALEIANAHRKPLVIIAEDVDGEALSTLVLNRLKVGLQVVAVKAPGFGDNRKNQLKDMAIATGGAVFGEEGLTLNLEDVQPHDLGKVGEVIVTKDDAMLLKGKGDKAQIEKRIQEIIEQLDVTTSEYEKEKLNERLAKLSDGVAVLKVGGTSDVEVNEKKDRVTDALNATRAAVEEGIVLGGGCALLRCIPALDSLTPANEDQKIGIEIIKRTLKIPAMTIAKNAGVEGSLIVEKIMQSSSEVGYDAMAGDFVNMVEKGIIDPTKVVRTALLDAAGVASLLTTAEVVVTEIPKEEKDPGMGAMGGMGGGMGGGMF
For B7, the “Difference (log2), PP1 vs untreated” value in test [1] (setting [3]) is given as -0.8196 log2. The “Difference (log2), untreated vs GFP” value in test [2] (setting [4]) is on record as -0.2089 log2.

B8: COPB1 (protein, UniProt P53618 2-953, looked up)
Coatomer subunit beta: TAAENVCYTLINVPMDSEPPSEISLKNDLEKGDVKSKTEALKKVIIMILNGEKLPGLLMTIIRFVLPLQDHTIKKLLLVFWEIVPKTTPDGRLLHEMILVCDAYRKDLQHPNEFIRGSTLRFLCKLKEAELLEPLMPAIRACLEHRHSYVRRNAVLAIYTIYRNFEHLIPDAPELIHDFLVNEKDASCKRNAFMMLIHADQDRALDYLSTCIDQVQTFGDILQLVIVELIYKVCHANPSERARFIRCIYNLLQSSSPAVKYEAAGTLVTLSSAPTAIKAAAQCYIDLIIKESDNNVKLIVLDRLIELKEHPAHERVLQDLVMDILRVLSTPDLEVRKKTLQLALDLVSSRNVEELVIVLKKEVIKTNNVSEHEDTDKYRQLLVRTLHSCSVRFPDMAANVIPVLMEFLSDNNEAAAADVLEFVREAIQRFDNLRMLIVEKMLEVFHAIKSVKIYRGALWILGEYCSTKEDIQSVMTEIRRSLGEIPIVESEIKKEAGELKPEEEITVGPVQKLVTEMGTYATQSALSSSRPTKKEEDRPPLRGFLLDGDFFVAASLATTLTKIALRYVALVQEKKKQNSFVAEAMLLMATILHLGKSSLPKKPITDDDVDRISLCLKVLSECSPLMNDIFNKECRQSLSHMLSAKLEEEKLSQKKESEKRNVTVQPDDPISFMQLTAKNEMNCKEDQFQLSLLAAMGNTQRKEAADPLASKLNKVTQLTGFSDPVYAEAYVHVNQYDIVLDVLVVNQTSDTLQNCTLELATLGDLKLVEKPSPLTLAPHDFANIKANVKVASTENGIIFGNIVYDVSGAASDRNCVVLSDIHIDIMDYIQPATCTDAEFRQMWAEFEWENKVTVNTNMVDLNDYLQHILKSTNMKCLTPEKALSGYCGFMAANLYARSIFGEDALANVSIEKPIHQGPDAAVTGHIRIRAKSQGMALSLGDKINLSQKKTSI
Take B8: the “Difference (log2), PP1 vs untreated” value in test [1] (setting [3]) is given as -0.8147 log2. Further, in test [2] (setting [4]), the “Difference (log2), untreated vs GFP” value was found to be 0.6071 log2.
